According to the domain aggregation screens of Martell et al. (2025):

Assay: soluble fraction after stress (log2 fold change); higher = more stays soluble; pooled small domains, quantitative proteomics
Conditions: stress: 75 degC
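Note: 20 min heating vs room temperature control held 20 min.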

Row | Sequence | soluble fraction (log2)
1 | HMATTPEETILEYINKNNRISKQEIADLMGITRDGVSYHIKKLRKNGLLEWIGSPSNGHWEIIE | 0.38
2 | HMKPTVKGHFTRKESNVGGYADVRGWGVAGTPSMMANQSKDTRRFSTLIVPGRSVNVHPSPTKEAIIWWQS | -0.224
3 | HMPFNLKSLADRLSHVFPGLVKMRDDIGAIIVMDKIKVTEHGVTEGGGLAADRVRAVYNEFIKEY | -0.247
4 | HMHPARITATVRVGEGDLVDIEREAELGGPIHSKGVMILSSFLGARYARTVPLSLSASLVFEQSY | 0.0581
5 | HMNLIFFSENLSTFRKEKGWTQSELAEKLGVKANTISNYEKGISTPDYKIIAKLRELFEMPTDVLLYSNLS | -1.86
6 | HMESILDDFPGLGAVRRAALLEHFGDIDRLRAASAVEITEVDGFGDVLARELHDFLHRPKPDA | -0.515
7 | HMTTMYKSDVKGINYDVKAKSWFLRITFNGNQIPIGHFKTEEDAINVKQQLIPYIESKDYTSILAVKAKYS | -1.9
8 | HMETKERDEQFLEMIRQNEGIIFKVASFYVDKEHPIGDLYQEVVLNLWKGYPSFRGESKYSTWIYRIALNT | 0.058
9 | HMSTTYLNEGDRITLTDSVNIRTSMSETADRVGLAYQGDVVTVIMSYAEGWTKVSWNGQTGYAKTEYL | -1.52
10 | HMTTQTGTVKWFNEGKGFGFIAPDDGGKDLFAHFKEIQGTGFKTLAENQRVEFEVTQGQKGPQASKI | -0.0331
11 | HMFIQLSQEEKKVVEGLQQRSKTHLDALALEVGQNISKTAAMLMELEMKGVVRALPGKYYEL | -1.1
12 | HMNLGAHVYWRNHRAYGDFREYEDVGGGREALALPGSTWGTKDPRVAQALFAARLTEFQEARVGR | -0.989
13 | HMSTVIENVFKNFEVYEIKKGDTFYNIEKRFGVNRQELLVLNPELKEGLKLGMVLKIKEIIP | -3.02
14 | HMALSGTVQNFAGGIMILIFRPFKTGDYIEALGYFGKVSEVNIVSTKLRTFDNKTIILPNGALSNGNIQNY | -0.772
15 | HMLTTVAAQRAALHQEEDITKLREIILKLVPFWGLDGGAYADKETSIQLERQYRESFDQAVSAARRSGQA | -0.335
16 | HMEDPKLAQLTEQERKILDLIADGLTNRQIAEKMFLAEKTVKNYVSTILAKMGMSNRSEAAAYVARLEAG | -0.0697
17 | HMISKWGELVDLAVQLDIIQKSGSWFSMGDERIGQGANSVKDYLIANPDIAEKVEAEVRENLWKLN | -0.625
18 | HMKPVSEMDNMEWVREQYFQNMIYEIGEWVKDKKTGIVGEIVKRGTNYVTIVQEDFSLHKIWLEDLETTE | -0.428
19 | HMYSSASKEEIDQLMKRLILNLDAKGYFWPQDKEKSLKLYLHNLFSKLPLNSSDIRFLHGLIRALSEE | -1.3
20 | HMGGQYQVRPGETLNQIAARVRPSNMSLSETQKAIIQANPDIFKNGNPNLIFAGDILRIPTGNQI | 0.466
21 | HMNNEISINGNKIYFNKNISKVFIYDISGKLIKHKNNFNNNFIDLSEFNSAFYIIKALDINENYTTKKIFL | -1.69
22 | HMNGVFIMHTPDGKVLRTEEGEEAVITLFNWSGQLLWSKTSLGQLPLPEGTQGVLQVQYKSGDQHTIKT | -1.28
23 | HMSDTVDITKLGIAGKTKEAAEALLKENGFSVESKEENSDTIEKGKVISYSPTKPKNGDRITLIVSSGKK | 0.294
24 | HMTKVMVPNVVGMSRGEAEEALRGVKLQVDLKREVSDDPEVKPEEVLRQTPDAQTSVPQGSVVTLYVADKP | 0.0285
25 | HMKLSKKVTDFLAQMPSKSISPKMLANNLGLADDAGDYKHLLKTIAQLEESKAIEVTAAGNIALPQPE | -0.162
26 | HMVDTSDLPAIVEKVFADNPEQVNDILNGKDRVKGFLVGQIMKATRGQAPPDEVNKLIDATLEKMKAA | 0.239

Row | Sequence | soluble fraction (log2)
27 | HMYPFSEETLKEKIREYLKTNRSINRRVLEREFYIRKQTALNWLNRLVDSGFLIKEGVRNSPVYFLAE | -0.884
28 | HMEVMYFIYQQEEPMRIDKFLVNEMEDFSRNSIQIYIKDNHVLVNDKVVKANYILKKGDAISITIPDPI | -1.14
29 | HMTQSQSLQSQFEQLEKAYQDNLHLLSPKQKLIIQEAGKIIQQLPQQAQIQAKVNLYQSLSAEISKESQQ | 0.1
30 | HMQKTQVVEVAGKSYQLTKMDARTGSYVAFKVAGVLAPSGGKTAEMAAALMGMPRKDFDELQSLLLRTV | 0.025
31 | HMLLFSVADIVKRSKRILSFKTDAELAAYFGVSRSTLSNWIARNSIDFPLLLSKMKDVDYTWLILGKGTPG | -3.97
32 | HMGVDMGPAKYVGQKALTATEMRPAGKIQIGQTVFDAVSVGPFIGARKAVKVIKYENAQLYVEPE | -0.415
33 | HMPNPALESARPAFEAFLSRFSDGEAMRGPAWGLWSLLHRKGNAPTASHAAGRDGMGVLAFLRHWQWG | -0.452
34 | HMSLSISSLVFFRKNAGLTQADIATAMSITQSAVARLEKRLLSDSDVTLKTLERYAEAVGIRMHVDFEP | 0.01
35 | HMELSPAELGERLKVARETANVTQDAGAKAAGIARTTLVAIEKGQRSARIDELQTLSRRYGVSVNSLLRR | -0.154
36 | HMRTMRHLSVPRQETQQILSQLKAEFALPQGARVQPDPSDSKRTLIPVKEGAESELLSRYPVVHAEP | 0.0613
37 | HMTMTIEITVNGKTKTLVAELSLADLLRDLGMTKGRIAVELNGHIVPRSQFSSKTISNLDSIEIVQ | -3.43
38 | HMTGESIPFSKFLSEVDSGRVINVEIQGNNISGLLSDGNKFKTYSPNYPNLVEILSEKEVSIVATPLE | 0.0122
39 | HMDIEVEVPNLVGMSLDEAKSIIQSMGLVVGLTIEDPSAKVSDNSVTKQKPTYQTGVKLRSGDMIDIWYAG | -0.659
40 | HMLDEKAVRQYLLNTLENSEIKMDRQAIDLFLRLTDLDLSKMMRELQKILLYGQEQEVITVKEIEQ | -0.779
41 | HMGPTGGLTPHIAIADKRASEAIEFYKQAFGAVEQVRMPAEDGVRLMHAHLLVNGSSLMMHDDFPEYSGQ | 0.133
42 | HMSDLQTGDINQDGTVDEKDLSLLHSYNLELIKTISNAADLNEDGVINGLDEAYLKRLFLQNSDP | -0.122
43 | HMGLNELQVKLNEAMQRLSLKHRTVVVMHDIEGIPHDEIAKIVGVSVGTIRSRLFYARRQLQADLGEY | -2.32
44 | HMKVFREERLQLILEKLIHEKKVVVSDLVKYFNVSPSLIRMDLAELEKRDLILRTHGGAILPD | -2.9
45 | HMDWFDELKVSTDDSGRVTAPEESEFMFQTSNEKIFAGGDMVRGSDLVVTAIWEGRQAAEGIMDYLD | -0.02
46 | HMKNLADNIVALRKKHGLSQEQFAEKIDVTRQAVSNWERRIATPDVETIDLIAKLFDTDLTALVNG | -0.342
47 | HMGESYQIKDGELLVDIAQRVKPAGMTLRQTINALVAANPRAFRNGNPDLMYRGATLTIPDGDTLRRLAH | -0.0841
48 | HMNRKLKAKATREKIYKSAEKLFSQNDYNKVSVDAIVEAAGVAKGSFYVHFASKDALIAMLINDH | -0.448
49 | HMLSVRQRMGELLERLADGQFHRFESLFTVEEGKLGVVVTFLGLLTLAKEQLLDIVQEGPTAPIYVKSLA | -0.569
50 | HMSNRFIQFRQRAIDWLNSDRDFNAGILLLEESGFKPGVVAKLKRHGVNGPEAKKRLKFLINELVKAWA | -1.2
51 | HMDSRVRHAVLTTLLGKRIVDDLVEKGELPGTPLVLATAPGLDRDLEQLIAQRVVTALLTTV | -0.0018
52 | HMNFFQEIGNSILIELNKKNWTQSMFAHKIGVSDEVFKQIVQGKKALNAVEIAKIANTLDVDPEKLLRK | -1.08

Row | Sequence | soluble fraction (log2)
53 | HMLIPADETEAKVLSVLSREPLHVDEIRNQAGLPIEKISATLALMELKGMVRQVGGMNYVSV | -0.044
54 | HMRSPIWKSITATLTAEIAGGQYRAGDKLPTEAELSQRFGVNRHTLRRALAEMAGAGLVVARRGAGVFVQG | -2.5
55 | HMGGLENNLKQARNRVGLTQSELARQAGISRQAYSSLESGAANPSTEVALRLAQALSERVESLFYLPE | -0.117
56 | HMISEGDIIKGTVIDVNEEEVILDLKYYAQGVIKAENLSNDPDFLAAGKISVGDEIEATVIKMDDGEGNIE | 0.529
57 | HMLALKSGQVVVGTIIRRLDNTTAMLRIGNQLFETSFAKGLPKSNHILLRYDAMQGNRFIFTMVE | -0.635
58 | HMFEYDEIMEQSVPKIAWGSLLTIMKKASSHKEMLWYINETYKNGWSRSMVLNQIAMASYERSLIE | -0.732
59 | HMLAAAVVVYATDKVNVRAEASETADVIGQLEAGSQTTRLEDKDGWSRIDYSNGTQGYMKSEFLSTEAPT | 0.347
60 | HMEETLEELGKEYESAFTMYEKLWSYYKKQNYHQVNHKRSERYEILLGFVREYHPEKVEYYRELL | 0.378
61 | HMDDPEISQEQRQQLFRTAKEHFGASGNDVLKEILADHGRDSTVKMPVSVFAEIMGDLLKRALD | 0.612
62 | HMIPDLPAVGVNVHKERRRQQLSLDALAAGSGVSKAMLSQIESGKVNPTVATMWKIAHALGVDFELLLKGE | -0.982
63 | HMPEITPAMIKALLSSLSEELAFASVTKVYAVLHNLFKAALLDDTIDRNPMDKVPRPRKSKDAAL | -0.576
64 | HMTEVPSLSSLKIGDLIFYRNNKGAIAHSAIITSFYNGRPFISQHTFNALNITYVKDWASKMHFIKIW | 0.0528
65 | HMDSSALEPIVDQIIADNPKQVEQFQAGKTKVLGFFVGQVMKQTDGTANPKQVNELVAARLKSA | 0.0418
66 | HMEDKPITKEQKQAMFALLREHFSGDEGNAVYTAVLEREGLAPGDKIMSSVYDRLIDGINEAIRQKLEAGA | -0.0206
67 | HMSERVVEIDPSQLRPGLFIRLPSGWMNHPFLFNQFRINSAEQVEIIQKLGLKTVQYLPERSSTQALPRA | -1.95
68 | HMFIEMDEPEKILHRILNEANGKLELDKIGYRAEWPIGKVLTVLMSLELKGVVQSHPGKVYSL | -0.371
69 | HMIADPAKPDWTTILAPVTTGTTVTHKTFGQGTVTKLDKTKKYLTVSFAAGQKNFVFPNAFIDGFLK | -0.159
70 | HMNPSPYLRRHLSGDWGDLDEDDRRSNDAALASGEARLLSSYQVDPDLKLWIITEWDRSVTTLLLPSE | -0.0994
71 | HMNPLHYKAAHWVREGLFDDLKSFVELETRINSIFEEKDRGDVFEIFIEGYRSFSKWRALVLRLA | -0.365
72 | HMQIKNVDYGTFLDMLDEKNVKEVEIEDEQIVFTDNADPTGYYTTGRMEDPDLVDRLHNSGATFSAI | 0.134
73 | HMSHPNAPLTPEGRRRLAVLIVEDGWTIRRAAERFQVSPATASKWARRYRAGESLTDRSSRP | -1.85
74 | HMVRKGEINFDQLSVRARNALRNMNILFEKEILKLTEYDLKSIPNLGVKTTNELLSYIKRLQTNQKEE | -1.47
75 | HMSKSIELMNEIKKYIEEYYLQYRQSPSTTKIAEAVGIARGTAYKYLVEMSERNMIEYDGQEISTEVTRKY | -1.43
76 | HMNNPLLDKVYQLMKQNNITEEEIVRAVAMKGYFPDDMKLGDYPDDFIDGVLIGAWDQIKQFIINNISPFK | -0.281
